Results reported in patent publication US20110262445A1 (CEPHALON AUSTRALIA, published 2011).

T1: human IL-12 (human, UniProt P29460 23-328; P29459 23-219)
T1 construct: Recombinant (Peprotech); FLAG-tagged IL-12 in the flow cytometry assays, biotinylated in the IL-12Rβ2 assay; also called hIL-12
T1 sequence 1: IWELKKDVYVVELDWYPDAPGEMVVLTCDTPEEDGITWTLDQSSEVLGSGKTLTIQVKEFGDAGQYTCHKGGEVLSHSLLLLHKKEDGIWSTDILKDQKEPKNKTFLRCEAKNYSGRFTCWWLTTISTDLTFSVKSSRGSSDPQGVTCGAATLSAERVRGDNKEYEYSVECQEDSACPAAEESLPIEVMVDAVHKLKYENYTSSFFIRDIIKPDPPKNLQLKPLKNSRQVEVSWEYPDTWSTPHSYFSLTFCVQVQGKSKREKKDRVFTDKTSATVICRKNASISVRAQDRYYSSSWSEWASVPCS
T1 sequence 2: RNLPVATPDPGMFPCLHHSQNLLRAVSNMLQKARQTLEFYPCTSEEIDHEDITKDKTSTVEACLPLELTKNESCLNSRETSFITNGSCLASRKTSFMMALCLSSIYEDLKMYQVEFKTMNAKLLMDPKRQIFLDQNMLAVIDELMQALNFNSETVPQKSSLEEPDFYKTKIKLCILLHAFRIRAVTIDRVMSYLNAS

T2: human IL-23 (human, UniProt P29460 23-328; Q9NPF7 20-189)
T2 construct: Recombinant (Ebioscience); HIS-tagged in flow cytometry, biotinylated in some assays; also called hIL-23; rhIL-23
T2 sequence 1: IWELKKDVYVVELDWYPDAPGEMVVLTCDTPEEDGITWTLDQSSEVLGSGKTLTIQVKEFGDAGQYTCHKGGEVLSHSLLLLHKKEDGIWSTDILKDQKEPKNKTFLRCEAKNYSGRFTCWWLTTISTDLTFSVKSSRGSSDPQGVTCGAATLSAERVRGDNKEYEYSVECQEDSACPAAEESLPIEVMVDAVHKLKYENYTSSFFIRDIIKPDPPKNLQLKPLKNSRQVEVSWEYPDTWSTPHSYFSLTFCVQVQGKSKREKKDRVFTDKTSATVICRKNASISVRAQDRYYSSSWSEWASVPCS
T2 sequence 2: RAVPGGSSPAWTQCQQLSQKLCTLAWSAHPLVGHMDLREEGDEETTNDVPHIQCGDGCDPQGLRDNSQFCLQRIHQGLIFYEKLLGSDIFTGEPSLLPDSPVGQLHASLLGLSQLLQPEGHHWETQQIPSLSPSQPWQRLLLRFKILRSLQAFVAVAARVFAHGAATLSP


Columns and labels:
[1] = target: T1, human IL-12; assay: ELISA, coated IL-12
Method in brief: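 Binding values are absorbance readings. After cytokine (1 μg/mL, carbonate buffer pH 9.6) was coated onto Maxisorp plates overnight at 4° C and the plates were blocked with 1% BSA in PBS, antibody titrations were bound for 1 hour at 25° C and detected with HRP-linked goat anti-human IgG or anti-murine immunoglobulin (1:2000). Color from TMB, stopped with 1M HCl, was read at 450 nm with 620 nm as reference.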

[2] = target: T2, human IL-23; assay: ELISA, coated IL-23
Description: This cysteine at the start of CDR3 could be oxidized, causing heterogeneity in any resulting antibody product. It could also form complexes by disulphide bond formation. Therefore, each of the other 18 (the exceptions being the original Cys and Trp) amino acids was substituted in this position using gene synthesis, and the antibodies were expressed transiently (Antibodies 5, 6, 7, 8, 9, 10, 11, 12, 13, 14, 15, 16, 17, 18, 19, 20, 21, 22). An ELISA was performed on these antibodies (FIG. 9). Some of the antibodies retained binding activity for both IL-12 and IL-23, others only for one cytokine or the other, while others minimally bound to either cytokine.
IL-12 (Peprotech), IL-23 (Ebioscience™), IL-12p40 (Ebioscience™) or IL-12p80 (Peprotech), was diluted to 1 μg/mL in carbonate coating buffer ([…] pH 9.6) and coated onto a 96 well plate (Nunc™, Maxisorp™) overnight at 4° C. The plate was then washed three times with wash buffer (0.01M PBS pH 7.2, 0.05% Tween-20) and then three times with 0.01M PBS pH 7.2. The wells were then blocked by adding 200 μl of blocking buffer (1% w/v BSA in 0.01 M PBS pH 7.2) to each well and incubating the plate at 25° C. for 1 hour. The antibody was diluted in antibody diluent (1% w/v BSA, 0.05% Tween-20 in 0.01M PBS pH 7.2) sufficient to generate a titration curve. The wells were incubated with the antibody for 1 hour at 25° C. The plate was then washed as previously described. Goat anti-human immunoglobulin G (H+L) antibody HRP conjugate (Zymed®) at 1:2000 in antibody diluent was used to detect bound primary antibody. Goat anti-murine immunoglobulin antibody HRP conjugate (Dako) at 1:2000 in antibody diluent was used to detect bound murine antibody. After incubation at 25° C. for 1 hour the plate was washed again as previously described. TMB substrate solution (Zymed®) was added to each well and the colour allowed to develop; the reaction was terminated by adding 1M HCl to the wells. The absorbance of each well was determined at 450 nm (ref. 620 nm).

| Binder | binding result [1] | binding result [2] |
| --- | --- | --- |
| Antibody 5 (antibody, human IgG1, kappa, V domains shown) VH: EVQLQQSGADLVRSGASIKLSCTASGFNIKDYYMHWVKQRPEQGLEWIGWIDPENGDTEYAPKFQGKATMTADTSSNTAYLQLSSLTSEDTAVYYCNAAKELRYFDVWGAGTTVTVSS VL: DIVLTQSPATLSVTPGDSVSLSCRASQSISINLHWYQQKSHESPRLLIKFASQSISGIPSRFSGYGSGTDFTLSINSVETEDFGRYFCQQSNSWPLTFGAGTKLELKR | binds | binds |
| Antibody 13 (antibody, human IgG1, kappa, V domains shown) VH: EVQLQQSGADLVRSGASIKLSCTASGFNIKDYYMHWVKQRPEQGLEWIGWIDPENGDTEYAPKFQGKATMTADTSSNTAYLQLSSLTSEDTAVYYCNAIKELRYFDVWGAGTTVTVSS VL: DIVLTQSPATLSVTPGDSVSLSCRASQSISINLHWYQQKSHESPRLLIKFASQSISGIPSRFSGYGSGTDFTLSINSVETEDFGRYFCQQSNSWPLTFGAGTKLELKR | binds | binds |
| Antibody 18 (antibody, human IgG1, kappa, V domains shown) VH: EVQLQQSGADLVRSGASIKLSCTASGFNIKDYYMHWVKQRPEQGLEWIGWIDPENGDTEYAPKFQGKATMTADTSSNTAYLQLSSLTSEDTAVYYCNAPKELRYFDVWGAGTTVTVSS VL: DIVLTQSPATLSVTPGDSVSLSCRASQSISINLHWYQQKSHESPRLLIKFASQSISGIPSRFSGYGSGTDFTLSINSVETEDFGRYFCQQSNSWPLTFGAGTKLELKR | binds | binds |
| Antibody 12 (antibody, human IgG1, kappa, V domains shown) VH: EVQLQQSGADLVRSGASIKLSCTASGFNIKDYYMHWVKQRPEQGLEWIGWIDPENGDTEYAPKFQGKATMTADTSSNTAYLQLSSLTSEDTAVYYCNAHKELRYFDVWGAGTTVTVSS VL: DIVLTQSPATLSVTPGDSVSLSCRASQSISINLHWYQQKSHESPRLLIKFASQSISGIPSRFSGYGSGTDFTLSINSVETEDFGRYFCQQSNSWPLTFGAGTKLELKR | binds | binds |
| Antibody 10 (antibody, human IgG1, kappa, V domains shown) VH: EVQLQQSGADLVRSGASIKLSCTASGFNIKDYYMHWVKQRPEQGLEWIGWIDPENGDTEYAPKFQGKATMTADTSSNTAYLQLSSLTSEDTAVYYCNAQKELRYFDVWGAGTTVTVSS VL: DIVLTQSPATLSVTPGDSVSLSCRASQSISINLHWYQQKSHESPRLLIKFASQSISGIPSRFSGYGSGTDFTLSINSVETEDFGRYFCQQSNSWPLTFGAGTKLELKR | binds | binds |
| Antibody 20 (antibody, human IgG1, kappa, V domains shown) VH: EVQLQQSGADLVRSGASIKLSCTASGFNIKDYYMHWVKQRPEQGLEWIGWIDPENGDTEYAPKFQGKATMTADTSSNTAYLQLSSLTSEDTAVYYCNATKELRYFDVWGAGTTVTVSS VL: DIVLTQSPATLSVTPGDSVSLSCRASQSISINLHWYQQKSHESPRLLIKFASQSISGIPSRFSGYGSGTDFTLSINSVETEDFGRYFCQQSNSWPLTFGAGTKLELKR | binds | binds |
| Antibody 17 (antibody, human IgG1, kappa, V domains shown) VH: EVQLQQSGADLVRSGASIKLSCTASGFNIKDYYMHWVKQRPEQGLEWIGWIDPENGDTEYAPKFQGKATMTADTSSNTAYLQLSSLTSEDTAVYYCNAFKELRYFDVWGAGTTVTVSS VL: DIVLTQSPATLSVTPGDSVSLSCRASQSISINLHWYQQKSHESPRLLIKFASQSISGIPSRFSGYGSGTDFTLSINSVETEDFGRYFCQQSNSWPLTFGAGTKLELKR | binds | binds |
| Antibody 11 (antibody, human IgG1, kappa, V domains shown) VH: EVQLQQSGADLVRSGASIKLSCTASGFNIKDYYMHWVKQRPEQGLEWIGWIDPENGDTEYAPKFQGKATMTADTSSNTAYLQLSSLTSEDTAVYYCNAGKELRYFDVWGAGTTVTVSS VL: DIVLTQSPATLSVTPGDSVSLSCRASQSISINLHWYQQKSHESPRLLIKFASQSISGIPSRFSGYGSGTDFTLSINSVETEDFGRYFCQQSNSWPLTFGAGTKLELKR | binds | binds |

Results, then the binder that gave them:

| binding result [1] | binding result [2] | Binder |
| --- | --- | --- |
| binds | binds | Antibody 9 (antibody, human IgG1, kappa, V domains shown) VH: EVQLQQSGADLVRSGASIKLSCTASGFNIKDYYMHWVKQRPEQGLEWIGWIDPENGDTEYAPKFQGKATMTADTSSNTAYLQLSSLTSEDTAVYYCNAEKELRYFDVWGAGTTVTVSS VL: DIVLTQSPATLSVTPGDSVSLSCRASQSISINLHWYQQKSHESPRLLIKFASQSISGIPSRFSGYGSGTDFTLSINSVETEDFGRYFCQQSNSWPLTFGAGTKLELKR |
| binds | binds | Antibody 8 (antibody, human IgG1, kappa, V domains shown) VH: EVQLQQSGADLVRSGASIKLSCTASGFNIKDYYMHWVKQRPEQGLEWIGWIDPENGDTEYAPKFQGKATMTADTSSNTAYLQLSSLTSEDTAVYYCNADKELRYFDVWGAGTTVTVSS VL: DIVLTQSPATLSVTPGDSVSLSCRASQSISINLHWYQQKSHESPRLLIKFASQSISGIPSRFSGYGSGTDFTLSINSVETEDFGRYFCQQSNSWPLTFGAGTKLELKR |
| binds | binds | Antibody 22 (antibody, human IgG1, kappa, V domains shown) VH: EVQLQQSGADLVRSGASIKLSCTASGFNIKDYYMHWVKQRPEQGLEWIGWIDPENGDTEYAPKFQGKATMTADTSSNTAYLQLSSLTSEDTAVYYCNAVKELRYFDVWGAGTTVTVSS VL: DIVLTQSPATLSVTPGDSVSLSCRASQSISINLHWYQQKSHESPRLLIKFASQSISGIPSRFSGYGSGTDFTLSINSVETEDFGRYFCQQSNSWPLTFGAGTKLELKR |
| binds | binds | Antibody 19 (antibody, human IgG1, kappa, V domains shown) VH: EVQLQQSGADLVRSGASIKLSCTASGFNIKDYYMHWVKQRPEQGLEWIGWIDPENGDTEYAPKFQGKATMTADTSSNTAYLQLSSLTSEDTAVYYCNASKELRYFDVWGAGTTVTVSS VL: DIVLTQSPATLSVTPGDSVSLSCRASQSISINLHWYQQKSHESPRLLIKFASQSISGIPSRFSGYGSGTDFTLSINSVETEDFGRYFCQQSNSWPLTFGAGTKLELKR |
